Laboratory results taken from patent EP1557432B1.

Target: TBP-hCGβ(20-190)
Assay: sandwich immunoassay for the hCG heterodimer (anti-hCG β capture, anti-TSH α detection), COS-7 cotransfection of α and β fusions

Concentration (ng/ml) of heterodimer in hCG heterodimer assay: 38 ng/mL
Substance: TBP-hCGα(20-190)
